A short description of the data set: soluble on expression in E. coli; label from the status in PepcDB or PDB records.
As to “KGDFVFKPYLLVQTCANFNWYDDEGLDKAYNQDNVANSGFSIPYAVLGFTGKAFGKVAFNLSINAAASGGALLQQAWFDVQLKKQFAVRVGKFKTPFSHAYLTTLGETLLPQLPVSLTSAIILPYSLNAVTPNIGTGFDLGVEIHGLLADKFGYEVGLFNGTGSSVNTATKTLSDDWHIPSLLYAGRFTYMPKGVMPSTQGNPNRLNEDKIMFGVSASINVESENESTNDTRVGVEFAMLKNKLYLGAEAYYMNVGFTDRQKINETYNYLGGYVQGGYFVAPRLQAALRYDFFNRNGTSDDGFLNMPAVGVNYFFKGCNLKLQAMYQYIARTGHDTQLDRDNDNLGLATHSATVMLQYTF”, the “soluble on expression in E. coli” value is recorded as “not soluble”.
To “MGSDKIHHHHHHMTVQRREKGSSITRVLEIIEAISRAERPMSPAELAFLLDIPKPSIHRLLQQLEADNYVQINMRGLLVPGDRMHSIALGVLHSSRFKALRQAILKKLAETIGETCGIAIPDGIEMIYYDRVQTNWPLRVNLPVGSHTPVACTASGKLYLSSLPKERRHRIIGKLSLEKLARNTLIESESLEKELINIQANELGTDNEEFIDGMVACSVPIKDQDGKLFACLFTHAPVIRKSLDELLAFEPALRHAAIELGDLLKEQ” belongs “not soluble”; to “MGSDKIHHHHHHMRFLAYFGHLNIDVLISVDSIPREGSVNVKDLRPRFGGTAGNFAIVAQKFRIPFDLYSAVGMKTHREYLAMIESMGINTGHVEKFEDESGPICYIATDGKKQVSFMHQGAMEKWKPQLADEYEYVHFSTGPNYLDMAKSIRSKIIFDPSQEIHKYSKDELKKFHEISYMSIFNDHEYRVFREMTGLSSPKVTTIVTNGERGSSLFMDGKKYDFPAIPSSGDTVGAGDSFRAGLYLALYNRRSIEKGMIYGTIIAHHVIDDGIENFSLNMEDLERETENYRRMFTKRS”, “not soluble”.
The value for “MNYTLKNDHLNVVVDTFGAEMHSIQHDDIEYLWQADAKFWGRHAPVLFPIVGKLKNGEYRYNDKTYKMGGHGFARDNDFELIKKSADELVFELRDNEDSLNHYPFHFVFRVSYKLVDNKIRVRYEVKNEDEKFMSFGVGAHPAFNVPLKNGTFEDYQLTISPDEKRTFIPLDPPSGTLKLDERVESQVSQLPLTRALFDKDALVYTSSKEMKVSLTNKLDDHGVSLTWKNMPYFGLEHHHHHH” was “not soluble”.
The value for “MGSDKIHHHHHHMNNLDIKTLGQVFTPKKIVDFMLTLKHNHGSVLEPSAGDGSFLKRLKKAVRIEIDPKICPKNALCMDFFDYPLENQFDTIIGNPPYVKHKDIAPSTKEKLHYSLFDERSNLYLFFIEKAIKHLKPKGELIFITPRDFLKSTSSVKLNEWIYKEGTITHFFELGDQKVFPNAMPNCVIFRFCKGNFSRITNDGLQFLCKKGILYFLNQSYTQKLSEVFKVKVGAVSGCDKIFKNEKYGNLEFVTSITKRTNALEKMVFVNEPNDYLLQHKDSLMQRKIKKFNENNWFEWGRMHHISPKKRIYVNAKTHQKNPFFIHQCPNYDGSILALFPYNQNLDLQNLCDKLNAINWQELGFVCGGRFLFSQRSLENALLPKDFLNLG” was “not soluble”; that for “MEGISNFKTPSKLSEKKKSVLCSTPTINIPASPFMQKLGFGTGVNVYLMKRSPRGLSHSPWAVKKINPICNDHYRSVYQKRLMDEAKILKSLHHPNIVGYRAFTEANDGSLCLAMEYGGEKSLNDLIEERYKASQDPFPAAIILKVALNMARGLKYLHQEKKLLHGDIKSSNVVIKGDFETIKICDVGVSLPLDENMTVTDPEACYIGTEPWKPKEAVEENGVITDKADIFAFGLTLWEMMTLSIPHINLSNDDDDEDKTFDESDFDDEAYYAALGTRPPINMEELDESYQKVIELFSVCTNEDPKDRPSAAHIVEALETDV” was “soluble”; that for “MAHHHHHHMIVELNPANFHKVVKDPSKNVFVMFYAPWCGHCNNMKPMWLELADKYPTAEDVIIARIDASEYRGIAKEFDIRGFPTLKFFSKRDKSGEIEYDGPRELSAFVAYVATNKQ” was “not soluble”.
For the sequence “MSALTLKGTSYKMCTDKMSFVKNPTDTGHGTVVMQVKVPKGAPCKIPVIVADDLTAAINKGILVTVNPIASTNDDEVLIEVNPPFGDSYIIVGTGDSRLTYQWHKEGSSIGK”, the “soluble on expression in E. coli” value was “soluble”.
The value for “MSLSGTDIHTSDYYFLFEEKFRGSRELVKARLRRYIPYFKGCRRVLDIGCGRGEFLELCKEEGIESIGVDINEDMIKFCEGKFNVVKSDAIEYLKSLPDKYLDGVMISHFVEHLDPERLFELLSLCYSKMKYSSYIVIESPNPTSLYSLINFYIDPTHKKPVHPETLKFILEYLGFRDVKIEFFEECEELTKLAKIDSNTVSEEVIRVINENIEKLNRILFGPQDYAIIAKKEGHHHHHH” was “soluble”; that for “IDFHRGTQGEGRVEVELSQPGAVINVHSHGSRLLVEFMKAYLPPNLERRLNVLDFATPVQSVETVARDGNVQMIIEPKGRWEHTSWQTGTSFVVEIRPMAEAED” was “not soluble”; that for “MKKYIALAWVCLALTDVMAQKQKVVEKVVDEDYYPVEGAVVTLKRTNQNATTDKDGVFILEEVPVYFDSLQVKKGKRSGYIDLPMRIQMRTQVMQRFSWSVKAGIGAGKFMQGPESKLKDGFSIYGGVGADIRMSKHWAFQPSLLLVSRKMKGYDFYGYYAENNGDGSSSASYEQVSGTYNPFYLEIPLLFALKYRVGNDMNLVFSFGPYIDLGLSGDEKREYIKHYYDTMEGNKTESVTNSRSLFGKRFTGGFAYGIGVEYGRFLIGGTGRVGCTSWNHSEGFIDVAFEIGYRF” was “not soluble”.
On to “MTIRLNDLGQVYLVCGKTDMRQGIDSLAYLVKSQHELDLFSGAVYLFCGGRRDRFKALYWDGQGFWLLYKRFENGKLAWPRNRDEVKCLTAVQVDWLMKGFFISPNIKISKSHDFY”, for which the “soluble on expression in E. coli” value was “not soluble”.
The value for “MPHPTHCRSANAVFRARMEFGLLEAPVSFSTLMDKRERGSFDSQFLIAMPGLDDGNFARSVIYICAHSDAGAMGFIINRPQQITFTDILLHLKLVDSNDAIMLPNRTREFPIQCGGPVESGRGFVLHSDDYLSESSIPVSDDISLTATLDIVRAISNGRGPQKATMMLGYAGWGPGQLENEIANNGWLNCPAAEELIFDRGLDNKYERALALMGVDARMLSTDAGHALEHHHHHH” was “soluble”; that for “MAHHHHHHMSMKKKMTKPFRTVVHLPVEEARGAIVRMIRRHNAVVIVGETGSGKTTQIPQYVWDDLVSREPPEQQGIVGCTQPRRVAAVSIARHVAKQRGGSVGAEVAYAVRFDDTCSRQTKIKYMTDGILLREIQTDPDLSHYRCLLLDEAHERTLHGDVLFGLLKDIVRRRKKTLTIVVMSATLNAEHFSKFWWNAPIGVVHGRLYPVTIFHTVEPQADYVEAAVSTLLQIHEKEEPGDVLCFLTGQEEIEDAKRILERRMKVMPSTLQEFMILTLYSAMPYEQQLRVFEPPLPGKRRIILSTNIAETSITVEGIRYVVDSGVVKAKFFSSKSGMEVLSEVDVSKAQATQRAGRAGRMTAGKCFRLYTAQAFESLAENTVPEIQRSSLISVVLEMKSLRIDRIMDFEFMDAPNPKAVVRAEETLMLLGALDRQGHITRLGQRLIDFPIEPMAAIVLLAGKALGVERDVTIAISMTMTENLFFTSREAKDGADRCKAAFAKSAGDHATLLGIYYAYKRVPKDQRKMWCESNAVNPSQMLKAEDVMTQLGAILNEHSDEELLSTMVRRSPNLAGNGAALHRKRRRDSEKDASGDDETSELLKGQTSGMVKLRDFELIRRALCYGFSLNAAFYNAKIGNYQTVVGQQVVHLHPSSVLFYQRKKPALVVFNSVVRTTRRYMKDVSVVQEEWLRDAASFLRPVA” was “not soluble”.
To “YGQYLSIRKTETLLRNELSKLTPDTVEELSSKLPENSRSLVITYMRQVLDARDTPAQVQRLLANFEIAADKDLAISKTLTK” belongs “not soluble”.
For “SQPKVPEWVNTPSTCCLKYYEKVLPRRLVVGYRKALNCHLPAIIFVTKRNREVCTNPNDDWVQEYIKDPNLPLLPTRNLSTVKIITAKNGQPQLLNSQ”, the “soluble on expression in E. coli” value is “soluble”.
Consider “MIPITPTIALDDAEIEERFIRSSGPGGQNVNKVSTAVQLRFDVAGSPNLPGWVKHRLSVLAGSRLTGEGVLVLTAQSQRTQEANRREAVERLVALIQAACHRDKPRRPTRPTKGSQTRRMDGKTLRGAIKKGRQSKPSLDLEHHHHHH”, for which the “soluble on expression in E. coli” value is “soluble”.

For the origin of these results see the DeepSol protein solubility set.
